Experimental data as given in PMC4731272.

T1: XtTet3-CXXC (Xenopus tropicalis, UniProt A0JP82 58-99)
T1 chain: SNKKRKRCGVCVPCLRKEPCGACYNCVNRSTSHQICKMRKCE

T2: mTet3-CXXC (Mus musculus (mouse), UniProt Q8BG87 51-96)
T2 chain: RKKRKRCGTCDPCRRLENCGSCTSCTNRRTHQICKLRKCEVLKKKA

T3: mTet3-CXXC T80A (Mus musculus (mouse), UniProt Q8BG87 51-96, T80A)
T3 chain: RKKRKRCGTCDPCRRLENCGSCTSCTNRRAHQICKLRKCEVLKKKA

T4: mTet3-CXXC H81A (Mus musculus (mouse), UniProt Q8BG87 51-96, H81A)
T4 chain: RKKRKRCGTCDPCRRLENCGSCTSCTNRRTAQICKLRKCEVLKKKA

T5: mTet3-CXXC Q82A (Mus musculus (mouse), UniProt Q8BG87 51-96, Q82A)
T5 chain: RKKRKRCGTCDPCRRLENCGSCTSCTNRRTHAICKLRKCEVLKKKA

T6: mTet3-CXXC K88A (Mus musculus (mouse), UniProt Q8BG87 51-96, K88A)
T6 chain: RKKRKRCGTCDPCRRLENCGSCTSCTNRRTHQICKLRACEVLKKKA


Key:
Experiment in all cases: ITC
[1] = target: T1, XtTet3-CXXC
[2] = target: T2, mTet3-CXXC
[3] = target: T3, mTet3-CXXC T80A
[4] = target: T4, mTet3-CXXC H81A
[5] = target: T5, mTet3-CXXC Q82A
[6] = target: T6, mTet3-CXXC K88A

Binder	Kd [1]	Kd [2]	Kd [3]	binding result [4]	Kd [5]	Kd [6]
CfCG DNA (dsDNA, 5-formyl-dC at position 6 of both strands) DNA 1: GAATCCGGATTC DNA 2: GAATCCGGATTC	10.4 µM	6.13 µM	–	–	–	–
CcaCG DNA (dsDNA, 5-carboxyl-dC at position 6 of both strands) DNA 1: GAATCCGGATTC DNA 2: GAATCCGGATTC	1.3 µM	0.56 µM	0.91 µM	no binding	0.97 µM	–
CCG DNA (dsDNA) DNA 1: GAATCCGGATTC DNA 2: GAATCCGGATTC	2.58 µM	1.88 µM	1.79 µM	no binding	2.38 µM	5.32 µM
ChmCG DNA (dsDNA, 5-hydroxymethyl-dC at position 6 of both strands) DNA 1: GAATCCGGATTC DNA 2: GAATCCGGATTC	18.6 µM	–	–	–	–	–
CmCG DNA (dsDNA, 5-methyl-dC at position 6 of both strands) DNA 1: GAATCCGGATTC DNA 2: GAATCCGGATTC	9 µM	5.59 µM	–	–	–	–
hemi-CcaCG DNA (dsDNA, 5-carboxyl-dC at position 6 of one strand only) DNA 1: GAATCCGGATTC DNA 2: GAATCCGGATTC	–	1.57 µM	–	–	–	–
